Test results as given in patent publication US20260132207A1 (ACCELERON PHARMA, published 2026).
Residue numbers refer to the chain shown, from its start.

B1: J01 (antibody, V domains shown)
VH: QVQLVQSGAEVKKPGASVKVSCKASGYTFTSYRMHWVRQAPGQGLEWMGFIVPSGGSTSYAQKFQGRVTMTRDTSTSTVYMELSSLRSEDTAVYYCARVSRYAPEPMDVWGQGTTVTVSS
VL: DIQMTQSPSSVSASVGDRVTITCRASQGISRWLAWYQQKPGKAPKLLIYAASSLQSGVPSRFSGSGSGTDFTLTISSLQPEDFATYYCQQAFSHPWTFGGGTKVEIK
notes: also called J01 antibody; mAB J01
B2: K01 (antibody, human IgG1, kappa, V domains shown)
VH: QLQLQESGPGLVKPSETLSLTCTVSGGSISSSSYYWGWIRQPPGKGLEWIGSISYSGSTYYNPSLKSRVTISVDTSKNQFSLKLSSVTAADTAVYYCARDSLRYGMDVWGQGTTVTVSS
VL: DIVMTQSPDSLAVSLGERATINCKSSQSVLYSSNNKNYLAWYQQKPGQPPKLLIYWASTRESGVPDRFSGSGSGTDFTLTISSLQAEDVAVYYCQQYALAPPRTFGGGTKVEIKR
notes: Naive human IgG from a yeast library; It was captured on an anti-hFc IgG chip in the SPR assay; also called K01 antibody; mAB K01
B3: L01 (antibody, human IgG1, kappa, V domains shown)
VH: B2 VH
VL: EIVMTQSPATLSVSPGERATLSCRASQSVSSNLAWYQQKPGQAPRLLIYGASTRATGIPARFSGSGSGTEFTLTISSLQSEDFAVYYCQVYNVWPRTFGGGTKVEIKR
notes: Naive human IgG; also called L01 antibody; mAB L01
B4: M01 (antibody, V domains shown)
VH: EVQLLESGGGLVQPGGSLRLSCAASGFTFGSYGMTWVRQAPGKGLEWVSVISGSGGGTYYADSVKGRFTISRDNSKNTLYLQMNSLRAEDTAVYYCAKGPRVVGMDVWGQGTTVTVSS
VL: B1 VL with R31S, F71Y, A91V, H94Y, W96L
notes: Optimized human IgG; It was captured through its Fc on an anti-hFc IgG chip; also called M01 antibody; mAB M01
B5: N01 (antibody, human IgG1, kappa, V domains shown)
VH: B2 VH
VL: DIQMTQSPSTLSASVGDRVTITCRASQSIGSWLAWYQQKPGKAPKLLIYKASSLESGVPSRFSGSGSGTEFTLTISSLQPDDFATYYCQVYGSYSPRTFGGGTKVEIKR
notes: also called N01 antibody; mAB N01
B6: P01 (antibody, V domains shown)
VH: EVQLLESGGGLVQPGGSLRLSCAASGFTFSSYAMSWVRQAPGKGLEWVSAISGSGGSTSYADSVKGRFTISRDNSKNTLYLQMNSLRAEDTAVYYCARLPQYSRPFDYWGQGTLVTVSS
VL: B1 VL with R31S, A91G, F92H, H94F, W96L
notes: Naive human IgG; also called P01 antibody; mAB P01

The binders below were run against T1, monomeric hActRIIA (human, UniProt P27037 20-135, limits assumed) (assay: SPR (Biacore), 37 C, antibody captured on anti-hFc IgG chip, monomeric ActRIIA injected, KD = kd/ka).
T1 construct: also called ActRIIA MONOMER; ActRIIA monomer
T1 sequence (P27037 20-135 limits assumed): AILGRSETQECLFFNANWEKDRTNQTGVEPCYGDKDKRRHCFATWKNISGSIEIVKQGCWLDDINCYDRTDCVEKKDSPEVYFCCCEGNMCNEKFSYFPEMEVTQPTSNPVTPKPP
Description: (§1) Kinetic characterization of J01, K01, L01, M01, N01, and P01 antibodies binding to monomeric and dimeric hActRIIB and hActRIIA was performed using standard BIACORE®-based analysis at 37° C. In brief, antibodies were captured on anti-hFclgG Biacore chips and different concentrations of dimeric and monomeric ActRIIB or ActRIIA were injected in duplicates over the captured antibody and control surface. To obtain kinetic rate constants the data were double referenced and fit to a 1:1 interaction model using BiaEvaluation software (GE Healthcare). The equilibrium binding constant KD was determined by the ratio of binding rate constants kd/kₐ
A Kd of 3.13 nM was found for B1 in this work.

What follows are binders tested against T2, dimeric hActRIIB (human, UniProt Q13705 19-134) (assay: SPR (Biacore), 37 C, antibody captured on anti-hFc IgG chip, dimeric ActRIIB injected, 1:1 model).
T2 construct: also called ActRIIB DIMER; ActRIIB dimer
T2 sequence (Q13705 19-134): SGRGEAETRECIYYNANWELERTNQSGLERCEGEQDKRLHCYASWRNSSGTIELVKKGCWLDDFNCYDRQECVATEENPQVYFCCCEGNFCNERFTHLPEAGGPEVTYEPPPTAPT
Description: as §1
A koff of 0.000683 s⁻¹ and a kon of 104000 M⁻¹ s⁻¹ were found for B2 in this work. A koff of 0.000365 s⁻¹ and a kon of 212000 M⁻¹ s⁻¹ were found for B3 in this work. A koff of 3.24e-05 s⁻¹ and a kon of 304000 M⁻¹ s⁻¹ were found for B4 in this work. A koff of 0.000335 s⁻¹ and a kon of 182000 M⁻¹ s⁻¹ were found for B5 in this work. A koff of 0.0145 s⁻¹ and a kon of 388000 M⁻¹ s⁻¹ were found for B6 in this work. A koff of 1.69e-05 s⁻¹ and a kon of 452000 M⁻¹ s⁻¹ were found for B1 in this work.

Each binder was assayed against T1, monomeric hActRIIA (assay: SPR (Biacore), 37 C, antibody captured on anti-hFc IgG chip, monomeric ActRIIA injected, 1:1 model).
Description: as §1
A koff of 0.00259 s⁻¹ and a kon of 828000 M⁻¹ s⁻¹ were found for B1 in this work.

These binders were tested against T3, dimeric hActRIIA (human, UniProt P27037 20-135) (assay: SPR (Biacore), 37 C, antibody captured on anti-hFc IgG chip, dimeric ActRIIA injected, KD = kd/ka).
T3 construct: also called ActRIIA DIMER; ActRIIA dimer
T3 sequence (P27037 20-135): as the sequence (P27037 20-135 limits assumed) above
Description: as §1
A Kd of 0.192 nM was found for B1 in this work.

Each binder was assayed against T4, monomeric hActRIIB (human, UniProt Q13705 19-134, limits assumed) (assay: SPR (Biacore), 37 C, antibody captured on anti-hFc IgG chip, monomeric ActRIIB injected, KD = kd/ka).
T4 construct: also called ActRIIB MONOMER; ActRIIB monomer
T4 sequence (Q13705 19-134 limits assumed): as the sequence (Q13705 19-134) above
Description: as §1
A Kd of 16 nM was found for B2 in this work. A Kd of 19.5 nM was found for B3 in this work. A Kd of 0.0755 nM was found for B4 in this work. A Kd of 18.5 nM was found for B5 in this work. A Kd of 0.209 nM was found for B1 in this work.

These binders were tested against T4, monomeric hActRIIB (assay: SPR (Biacore), 37 C, antibody captured on anti-hFc IgG chip, monomeric ActRIIB injected, 1:1 model).
Description: as §1
A koff of 0.00237 s⁻¹ and a kon of 148000 M⁻¹ s⁻¹ were found for B2 in this work. A koff of 0.0179 s⁻¹ and a kon of 921000 M⁻¹ s⁻¹ were found for B3 in this work. A koff of 8.72e-05 s⁻¹ and a kon of 1.16e+06 M⁻¹ s⁻¹ were found for B4 in this work. A koff of 0.00769 s⁻¹ and a kon of 416000 M⁻¹ s⁻¹ were found for B5 in this work. A koff of 0.00022 s⁻¹ and a kon of 1.05e+06 M⁻¹ s⁻¹ were found for B1 in this work.

Each binder was assayed against T2, dimeric hActRIIB (assay: SPR (Biacore), 37 C, antibody captured on anti-hFc IgG chip, dimeric ActRIIB injected, KD = kd/ka).
Description: as §1
A Kd of 6.57 nM was found for B2 in this work. A Kd of 1.72 nM was found for B3 in this work. A Kd of 0.107 nM was found for B4 in this work. A Kd of 1.84 nM was found for B5 in this work. A Kd of 37.4 nM was found for B6 in this work. A Kd of 0.0374 nM was found for B1 in this work.

The binders below were run against T3, dimeric hActRIIA (assay: SPR (Biacore), 37 C, antibody captured on anti-hFc IgG chip, dimeric ActRIIA injected).
Description: as §1
B2: no binding. B3: no binding. B4: no binding. B5: no binding. B6: no binding.

The binders below were run against T3, dimeric hActRIIA (assay: SPR (Biacore), 37 C, antibody captured on anti-hFc IgG chip, dimeric ActRIIA injected, 1:1 model).
Description: as §1
A koff of 9.31e-05 s⁻¹ and a kon of 484000 M⁻¹ s⁻¹ were found for B1 in this work.
